Measured values taken from patent publication US20120244208A1, “COSMETIC SKIN CARE METHODS AND COMPOSITIONS” (priority 2009, published 2012).

Columns and labels:
[1] = system: Normal human dermal fibroblasts (NHDFs) seeded on collagen type 1 gels; assay: Fibroblast-seeded collagen gel contraction; format: cell-based; details: 0.1 mg/ml lactoferrin, 0.1 mg/ml ICI 118 551, 1.0 mg/ml Isoproterenol, 3.5×10^4 cells per well
Method: Normal human dermal fibroblasts (NHDFs) were obtained by tissue donation following circumcision following patient informed consent. The tissue was rinsed in Phosphate Buffered Saline (PBS) and Pen/Strep and Amphotericin B (Pen/strep) at 10 ug/ml. The tissue was then minced to 1 mm2 sections and suspended in Trypsin-EDTA 1:250 at room temperature (RT) for 1 hr. The tissue was then washed twice by centrifugation at 2500 g for 3min in serum supplemented DMEM/F12. A single cell suspension was created using mechanical disaggregation. The cells were counted using a haemocytometer and cultured at 1×10^6 cells per T75 tissue culture flask in DMEM/F12 containing 10% Fetal Bovine Serum (FBS) and 10 ug/ml Pen/strep. Incubators were kept at 37° C. and 5% CO2. Medium was changed every 3-4 days and cells were used from the 4th passage in vitro.
Collagen gels were formed. A solution of collagen, consisting of 2 mg/ml type 1 bovine collagen from bovine Achilles tendon in 0.5M acetic acid, was made. This made up 80% of the gel. Another 10% was made up of 10×PBS and the remaining volume was made up of FBS. The pH of the entire solution was adjusted to 7.4 using NaOH. 400 μl of the solution was placed into each well of a 24 well plate. The gels were set at 37° C. for 1 hr. After ensuring that the gels were set properly, they were detached from the sides of the wells and exposed to 1 ml fully supplemented DMEM/F12 overnight to acclimatize. The complete gels were seeded with 3.5×10^4 cells per well and the test compounds were added at this point. The test compound were added as follows: 0.1 mg/ml lactoferrin, 0.1 mg/ml ICI 118 551, 1.0 mg/ml Isoproterenol. A cell only and no cell control were also incuded.
Photographs were taken from the same distance at 0, 3, 6, 12 and 24 hrs of exposure using a Canon Powershot A640 10MP camera. The photos were transferred to CorelDRAW X3 and the inside diameter of the well as well as the outer edge of the gel were measured using the circle tool. […] These two diameters were then converted to a percentage of the well diameter by the formula geloutside/wellinside×100=gelrelative. This value was then worked out the same way for each gel at every time period. The time period Ohrs taken to be 100% of gel size and each time period after that was compared to it as a relative percentage. The standard deviation was calculated based on the original relative percentage to the well.

[2] = system: Normal human dermal fibroblasts (NHDFs) seeded on collagen type 1 gels; assay: Fibroblast-seeded collagen gel contraction; format: cell-based; details: monitored for a further 3 days

B1: Lactoferrin (protein, UniProt P02788 20-710, looked up)
Lactotransferrin: GRRRSVQWCAVSQPEATKCFQWQRNMRKVRGPPVSCIKRDSPIQCIQAIAENRADAVTLDGGFIYEAGLAPYKLRPVAAEVYGTERQPRTHYYAVAVVKKGGSFQLNELQGLKSCHTGLRRTAGWNVPIGTLRPFLNWTGPPEPIEAAVARFFSASCVPGADKGQFPNLCRLCAGTGENKCAFSSQEPYFSYSGAFKCLRDGAGDVAFIRESTVFEDLSDEAERDEYELLCPDNTRKPVDKFKDCHLARVPSHAVVARSVNGKEDAIWNLLRQAQEKFGKDKSPKFQLFGSPSGQKDLLFKDSAIGFSRVPPRIDSGLYLGSGYFTAIQNLRKSEEEVAARRARVVWCAVGEQELRKCNQWSGLSEGSVTCSSASTTEDCIALVLKGEADAMSLDGGYVYTAGKCGLVPVLAENYKSQQSSDPDPNCVDRPVEGYLAVAVVRRSDTSLTWNSVKGKKSCHTAVDRTAGWNIPMGLLFNQTGSCKFDEYFSQSCAPGSDPRSNLCALCIGDEQGENKCVPNSNERYYGYTGAFRCLAENAGDVAFVKDVTVLQNTDGNNNEAWAKDLKLADFALLCLDGKRKPVTEARSCHLAMAPNHAVVSRMDKVERLKQVLLHQQAKFGRNGSDCPDKFCLFQSETKNLLFNDNTECLARLHGKTTYEKYLGPQYVAGITNLKKCSTSPLLEACEFLRK
notes: transferrin; known collagen contractor
**Q.** With B1 as the molecule, how does the “% of original size (mean)” value ([1]; 0 hrs (taken to be 100% of gel size)) read?
**A.** 100%

**Q.** And the “% of original size (mean)” value ([1]; 3 hrs)?
**A.** 92.62%

**Q.** What about the “% of original size (mean)” value ([1]; 6 hrs) of the same molecule?
**A.** 64.48%

**Q.** What about the “% of original size (mean)” value ([1]; 12 hrs) of the same molecule?
**A.** 54.71%

**Q.** What about the “% of original size (mean)” value ([1]; 24 hrs) of the same molecule?
**A.** 49.73%

**Q.** And the “return of gels to original dimensions” value [2]?
**A.** did not return to their original dimensions
